T1: human CLEC12A expressed on cells (human, UniProt Q5QGZ9 1-265)
T1 construct: Transduced isogenic cells or endogenous expression on AML cells; also called RMA-hCLEC12A; Ba/F3-hCLEC12A
T1 sequence: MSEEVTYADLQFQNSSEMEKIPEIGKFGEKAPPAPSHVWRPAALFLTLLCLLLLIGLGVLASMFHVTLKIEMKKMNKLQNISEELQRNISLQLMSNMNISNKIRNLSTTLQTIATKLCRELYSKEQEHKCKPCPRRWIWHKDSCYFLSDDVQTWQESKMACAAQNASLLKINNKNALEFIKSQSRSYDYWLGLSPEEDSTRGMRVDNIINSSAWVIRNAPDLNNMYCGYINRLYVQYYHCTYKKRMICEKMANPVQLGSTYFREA

T2: recombinant human CLEC12A-His (human, UniProt Q5QGZ9 65-265)
T2 construct: also called hCLEC12A-His; hCLEC12A
T2 sequence: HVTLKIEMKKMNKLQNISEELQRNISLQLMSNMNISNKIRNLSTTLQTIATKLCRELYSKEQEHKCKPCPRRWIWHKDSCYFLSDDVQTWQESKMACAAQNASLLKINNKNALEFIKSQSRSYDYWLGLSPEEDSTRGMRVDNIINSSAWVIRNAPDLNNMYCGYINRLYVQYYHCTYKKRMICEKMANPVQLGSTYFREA


Assays:
[1] = biological target: T1, human CLEC12A expressed on cells; test: flow cytometry, HL60
[2] = biological target: T2, recombinant human CLEC12A-His; test: SPR screening, semi-purified
[3] = biological target: T1, human CLEC12A expressed on cells; test: flow cytometry, hCLEC12A+ Ba/F3

Binder | EC50 [1] | Max binding MFI [1] | Kd [2] | koff [2] | kon [2] | EC50 [3] | Max binding MFI [3]
AB0191 (other, As AB0185) EVQLVESGGGVVQPGGSLRLSCAASGFTFNSFGMHWVRQAPGKCLEWVAFISSGSTSIYYANTVKGRFTISRDNSKNTLYLQMNSLRAEDTAVYYCARDGYPTGGAMDYWGQGTSVTVSSGGGGSGGGGSGGGGSGGGGSDIQMTQSPSSLSASVGDRVTITCKASQDIYNYLSWFQQKPGKAPKPLIYRANILVSGVPSRFSGSGSGQDYTFTISSLQPEDIATYYCLQFDAFPFTFGCGTKLEIKGSDKTHTCPPCPAPELLGGPSVFLFPPKPKDTLMISRTPEVTCVVVDVSHEDPEVKFNWYVDGVEVHNAKTKPREEQYNSTYRVVSVLTVLHQDWLNGKEYKCKVSNKALPAPIEKTISKAKGQPREPRVYTLPPCRDELTKNQVSLTCLVKGFYPSDIAVEWESNGQPENNYKTTPPVLVSDGSFTLYSKLTVDKSRWQQGNVFSCSVMHEALHNHYTQKSLSLSPG heavy: EVQLVESGGGLVKPGGSLRLSCAASGFTFSSYSMNWVRQAPGKGLEWVSSISSSSSYIYYADSVKGRFTISRDNAKNSLYLQMNSLRAEDTAVYYCARGAPIGAAAGWFDPWGQGTLVTVSSASTKGPSVFPLAPSSKSTSGGTAALGCLVKDYFPEPVTVSWNSGALTSGVHTFPAVLQSSGLYSLSSVVTVPSSSLGTQTYICNVNHKPSNTKVDKKVEPKSCDKTHTCPPCPAPELLGGPSVFLFPPKPKDTLMISRTPEVTCVVVDVSHEDPEVKFNWYVDGVEVHNAKTKPREEQYNSTYRVVSVLTVLHQDWLNGKEYKCKVSNKALPAPIEKTISKAKGQPREPQVCTLPPSRDELTENQVSLTCLVKGFYPSDIAVEWESNGQPENNYKTTPPVLDSDGSFFLYSWLTVDKSRWQQGNVFSCSVMHEALHNHYTQKSLSLSPG light: DIQMTQSPSSVSASVGDRVTITCRASQGISSWLAWYQQKPGKAPKLLIYAASSLQSGVPSRFSGSGSGTDFTLTISSLQPEDFATYYCQQGVSFPRTFGGGTKVEIKRTVAAPSVFIFPPSDEQLKSGTASVVCLLNNFYPREAKVQWKVDNALQSGNSQESVTEQDSKDSTYSLSSTLTLSKADYEKHKVYACEVTHQGLSSPVTKSFNRGEC | 0.6 nM | 420 MFI | 1.73 nM | 0.00126 s⁻¹ | 728000 M⁻¹ s⁻¹ | 0.6 nM | 7940 MFI
AB0195 (other, As AB0185) EVQLVESGGGVVQPGGSLRLSCAASGFTFNAFGMHWVRQAPGKCLEWVAFISSGSTSIYYANTVKGRFTISRDNSKNTLYLQMNSLRAEDTAVYYCARDGYPTGGAMDYWGQGTSVTVSSGGGGSGGGGSGGGGSGGGGSDIKMTQSPSSLSASVGDRVTITCKASQDIYNYLSWFQQKPGKAPKPLIYRANILVSGVPSRFSGSGSGQDYTLTISSLQPEDIATYYCLQFDAFPFTFGCGTKLEIKGSDKTHTCPPCPAPELLGGPSVFLFPPKPKDTLMISRTPEVTCVVVDVSHEDPEVKFNWYVDGVEVHNAKTKPREEQYNSTYRVVSVLTVLHQDWLNGKEYKCKVSNKALPAPIEKTISKAKGQPREPRVYTLPPCRDELTKNQVSLTCLVKGFYPSDIAVEWESNGQPENNYKTTPPVLVSDGSFTLYSKLTVDKSRWQQGNVFSCSVMHEALHNHYTQKSLSLSPG heavy: EVQLVESGGGLVKPGGSLRLSCAASGFTFSSYSMNWVRQAPGKGLEWVSSISSSSSYIYYADSVKGRFTISRDNAKNSLYLQMNSLRAEDTAVYYCARGAPIGAAAGWFDPWGQGTLVTVSSASTKGPSVFPLAPSSKSTSGGTAALGCLVKDYFPEPVTVSWNSGALTSGVHTFPAVLQSSGLYSLSSVVTVPSSSLGTQTYICNVNHKPSNTKVDKKVEPKSCDKTHTCPPCPAPELLGGPSVFLFPPKPKDTLMISRTPEVTCVVVDVSHEDPEVKFNWYVDGVEVHNAKTKPREEQYNSTYRVVSVLTVLHQDWLNGKEYKCKVSNKALPAPIEKTISKAKGQPREPQVCTLPPSRDELTENQVSLTCLVKGFYPSDIAVEWESNGQPENNYKTTPPVLDSDGSFFLYSWLTVDKSRWQQGNVFSCSVMHEALHNHYTQKSLSLSPG light: DIQMTQSPSSVSASVGDRVTITCRASQGISSWLAWYQQKPGKAPKLLIYAASSLQSGVPSRFSGSGSGTDFTLTISSLQPEDFATYYCQQGVSFPRTFGGGTKVEIKRTVAAPSVFIFPPSDEQLKSGTASVVCLLNNFYPREAKVQWKVDNALQSGNSQESVTEQDSKDSTYSLSSTLTLSKADYEKHKVYACEVTHQGLSSPVTKSFNRGEC | 0.7 nM | 551 MFI | 1.68 nM | 0.00129 s⁻¹ | 766000 M⁻¹ s⁻¹ | 0.6 nM | 10800 MFI

Binders with a lower EC50 [1], results first:

EC50 [1] | Max binding MFI [1] | Kd [2] | koff [2] | kon [2] | EC50 [3] | Max binding MFI [3] | Binder
0.4 nM | 372 MFI | 1.4 nM | 0.00101 s⁻¹ | 726000 M⁻¹ s⁻¹ | 0.7 nM | 8020 MFI | AB0185 (other, Humanized 9F11.B7 F3' TriNKET; scFv-Fc chain built from the general F3' description) DIQMTQSPSSLSASVGDRVTITCKASQDIYNYLSWFQQKPGKAPKPLIYRANILVSGVPSRFSGSGSGQDYTFTISSLQPEDIATYYCLQFDAFPFTFGCGTKLEIKGGGGSGGGGSGGGGSGGGGSEVQLVESGGGVVQPGGSLRLSCAASGFTFNSFGMHWVRQAPGKCLEWVAFISSGSTSIYYANTVKGRFTISRDNSKNTLYLQMNSLRAEDTAVYYCARDGYPTGGAMDYWGQGTSVTVSSGSDKTHTCPPCPAPELLGGPSVFLFPPKPKDTLMISRTPEVTCVVVDVSHEDPEVKFNWYVDGVEVHNAKTKPREEQYNSTYRVVSVLTVLHQDWLNGKEYKCKVSNKALPAPIEKTISKAKGQPREPRVYTLPPCRDELTKNQVSLTCLVKGFYPSDIAVEWESNGQPENNYKTTPPVLVSDGSFTLYSKLTVDKSRWQQGNVFSCSVMHEALHNHYTQKSLSLSPG heavy: EVQLVESGGGLVKPGGSLRLSCAASGFTFSSYSMNWVRQAPGKGLEWVSSISSSSSYIYYADSVKGRFTISRDNAKNSLYLQMNSLRAEDTAVYYCARGAPIGAAAGWFDPWGQGTLVTVSSASTKGPSVFPLAPSSKSTSGGTAALGCLVKDYFPEPVTVSWNSGALTSGVHTFPAVLQSSGLYSLSSVVTVPSSSLGTQTYICNVNHKPSNTKVDKKVEPKSCDKTHTCPPCPAPELLGGPSVFLFPPKPKDTLMISRTPEVTCVVVDVSHEDPEVKFNWYVDGVEVHNAKTKPREEQYNSTYRVVSVLTVLHQDWLNGKEYKCKVSNKALPAPIEKTISKAKGQPREPQVCTLPPSRDELTENQVSLTCLVKGFYPSDIAVEWESNGQPENNYKTTPPVLDSDGSFFLYSWLTVDKSRWQQGNVFSCSVMHEALHNHYTQKSLSLSPG light: DIQMTQSPSSVSASVGDRVTITCRASQGISSWLAWYQQKPGKAPKLLIYAASSLQSGVPSRFSGSGSGTDFTLTISSLQPEDFATYYCQQGVSFPRTFGGGTKVEIKRTVAAPSVFIFPPSDEQLKSGTASVVCLLNNFYPREAKVQWKVDNALQSGNSQESVTEQDSKDSTYSLSSTLTLSKADYEKHKVYACEVTHQGLSSPVTKSFNRGEC
0.5 nM | 412 MFI | 1.04 nM | 0.00117 s⁻¹ | 1.12e+06 M⁻¹ s⁻¹ | 0.7 nM | 8160 MFI | AB0186 (other, As AB0185) DIQMTQSPSSLSASVGDRVTITCKASQDIYNYLSWFQQKPGKAPKPLIYRANILVSGVPSRFSGSGSGQDYTFTISSLQPEDIATYYCLQFDAFPFTFGCGTKLEIKGGGGSGGGGSGGGGSGGGGSEVQLVESGGGVVQPGGSLRLSCAASGFTFNAFGMHWVRQAPGKCLEWVAFISSGSTSIYYANTVKGRFTISRDNSKNTLYLQMNSLRAEDTAVYYCARDGYPTGGAMDYWGQGTSVTVSSGSDKTHTCPPCPAPELLGGPSVFLFPPKPKDTLMISRTPEVTCVVVDVSHEDPEVKFNWYVDGVEVHNAKTKPREEQYNSTYRVVSVLTVLHQDWLNGKEYKCKVSNKALPAPIEKTISKAKGQPREPRVYTLPPCRDELTKNQVSLTCLVKGFYPSDIAVEWESNGQPENNYKTTPPVLVSDGSFTLYSKLTVDKSRWQQGNVFSCSVMHEALHNHYTQKSLSLSPG heavy: EVQLVESGGGLVKPGGSLRLSCAASGFTFSSYSMNWVRQAPGKGLEWVSSISSSSSYIYYADSVKGRFTISRDNAKNSLYLQMNSLRAEDTAVYYCARGAPIGAAAGWFDPWGQGTLVTVSSASTKGPSVFPLAPSSKSTSGGTAALGCLVKDYFPEPVTVSWNSGALTSGVHTFPAVLQSSGLYSLSSVVTVPSSSLGTQTYICNVNHKPSNTKVDKKVEPKSCDKTHTCPPCPAPELLGGPSVFLFPPKPKDTLMISRTPEVTCVVVDVSHEDPEVKFNWYVDGVEVHNAKTKPREEQYNSTYRVVSVLTVLHQDWLNGKEYKCKVSNKALPAPIEKTISKAKGQPREPQVCTLPPSRDELTENQVSLTCLVKGFYPSDIAVEWESNGQPENNYKTTPPVLDSDGSFFLYSWLTVDKSRWQQGNVFSCSVMHEALHNHYTQKSLSLSPG light: DIQMTQSPSSVSASVGDRVTITCRASQGISSWLAWYQQKPGKAPKLLIYAASSLQSGVPSRFSGSGSGTDFTLTISSLQPEDFATYYCQQGVSFPRTFGGGTKVEIKRTVAAPSVFIFPPSDEQLKSGTASVVCLLNNFYPREAKVQWKVDNALQSGNSQESVTEQDSKDSTYSLSSTLTLSKADYEKHKVYACEVTHQGLSSPVTKSFNRGEC
